Positions count from the first letter of the chain named. Names and notes keep the numbering of the source.
B1: HPH 2: human HPH 1 paralog, Genbank AF229245; splice-variant in which residues 76-177 are omitted was used (protein)
chain: ANDSGGPGGPSPSERDRQYCELCGKMENLLRCSRCRSSFYCCKEHQRQDWKKHKLVCQGSEGALGHGVGPHQHSGPAPPAAVPPPRAGAREPRKAAARRDNASGDAAKGKVKAKPPADPAAAASPCRAAAGGQGSAVAAEAEPGKEEPPARSSLFQEKANLYPPSNTPGDALSPGGGLRPNGQTKPLPALKLALEYIVPCMNKHGICVVDDFLGKETGQQIGDEVRALHDTGKFTDGQLVSQKSDSSKDIRGDKITWIEGKEPGCETIGLLMSSMDDLIRHCNGKLGSYKINGRTKAMVACYPGNGTGYVRHVDNPNGDGRCVTCIYYLNKDWDAKVSGGILRIFPEGKAQFADIEPKFDRLLFFWSDRRNPHEVQPAYATRYAITVWYFDADERARAKVKYLTGEKGVRVELNKPSDSVGKDVF
modifications: left off: small tags and cut ends
B2: HPH 1: human HIF prolyl hydroxylase 1, SEQ ID NO:1, Genbank XM_012332 (protein)
chain: MPLGHIMRLDLEKIALEYIVPCLHEVGFCYLDNFLGEVVGDCVLERVKQLHCTGALRDGQLAGPRAGVSKRHLRGDQITWIGGNEEGCEAISFLLSLIDRLVLYCGSRLGKYYVKERSKAMVACYPGNGTGYVRHVDNPNGDGRCITCIYYLNKNWDAKLHGGILRIFPEGKSFIADVEPIFDRLLFFWSDRRNPHEVQPSYATRYAMTVWYFDAEERAEAKKKFRNLTRKTESALTED
modifications: human
B3: D137A: HPH 1 with Asp137 changed to alanine (protein)
chain: B2 chain with D137A
modifications: left off: small tags and cut ends
B4: H135A: HPH 1 with His135 changed to alanine (protein)
chain: B2 chain with H135A
modifications: left off: small tags and cut ends
B5: H196A: HPH 1 with His196 changed to alanine (protein)
chain: B2 chain with H196A
modifications: left off: small tags and cut ends

What was measured:
human HIF-1a ODD peptide = human HIF-1a ODD peptide (Homo sapiens, UniProt Q16665, M561A/M568A); assay: [35S]-pVHL pull-down prolyl hydroxylase assay with biotinylated HIF-1a ODD peptide; format: biochemical; settings: for prolyl hydroxylase activity (pVHL association with the biotinylated peptide): enzyme in vitro transcribed/translated in rabbit reticulocyte lysate, ascorbate, 2-oxoglutarate, FeSO4 present
[1] = test system: transfected cell cultures; assay: Visual inspection of cell cultures transfected with HPH 1 expression vector
[2] = test system: HIF-1a activation of the HRE-driven reporter; assay: Hypoxia-responsive (HRE) luciferase reporter co-transfection in 293 cells; format: cell-based, human
Description: To test whether these HPH enzymes represent part of the hypoxic response pathway in vivo we first co-transfected (21) human embryonic kidney 293 cells with a hypoxia-responsive luciferase reporter (22) and increasing amounts of a vector expressing human HIF-1a under the control of the constitutive CMV promoter. Forced overexpression of HIF-1a can overcome the degradation pathway, resulting in accumulation of the HIF transcription factor under normoxic conditions and subsequent induction of the HRE-containing HIF reporter gene (22). […] Mutation of His^135, Asp^137 or His^196 to alanine eliminated the interfering activity of HPH 1 in these transfection assays. […] Finally, the ability of HPH 1 to diminish induction of the HIF-responsive luciferase reporter was lost when cells were incubated in an atmosphere containing 0.5% O2.
21. Transfection experiments were performed as in (22) with DNA amounts indicated in the text. Western blot analysis using an antibody specific for the carboxy-terminal V5 tag was used to confirm expression of each polypeptide following transfection of 1 μg of each expression vector.

[3] = test system: CMV-driven luciferase reporter; assay: Constitutive CMV-driven luciferase reporter co-transfection; format: cell-based, human

Molecule | prolyl hydroxylase activity (pVHL association with the biotinylated peptide) (human HIF-1a ODD peptide) | further results
B1 | catalyze the hydroxylation | hydroxylation of the HIF-1a peptide substrate (human HIF-1a ODD peptide; enzyme expressed in bacterial cells and purified by affinity chromatography): able to hydroxylate
B2 | able to enhance pVHL association | programmed cell death [1]: no overt evidence of programmed cell death; effect on induction of the HIF-dependent luciferase reporter ([2]; 293 cells, normoxic, 30 ng or 100 ng HIF-1a expression vector, 3 ng CMV-driven vector): able to attenuate; ability to diminish induction of the HIF-responsive luciferase reporter ([2]; atmosphere containing 0.5% O2): lost; effect on CMV-driven luciferase reporter expression [3]: did not attenuate
B3 | eliminated the prolyl hydroxylase activity | 
B4 | eliminated the prolyl hydroxylase activity | 
B5 | eliminated the prolyl hydroxylase activity | 

Source: US6566088B1, “Prolyl-4-hydroxylases” (Board of Regents, The University of Texas System, priority 2001, dated 2003)
